From the supplement of paper PMC7877785
± gives the uncertainty stated by the source.

Assay: self-splicing fitness, log relative to wild type (ln ratio); higher = more splicing; Tetrahymena group I intron in knt gene, E. coli kanamycin selection, DiMSum; sequences stand for … in CUCUCU…GGAGGGAAAAGUUAUCAGGCAUGCACCUGGUAGCUAGUCUUUAAACCAAUAGAUUGCAUCGGUUUAAAAGGCAAGACCGUCAAAUUGCGGGAAAGGGGUCAACAGCCGUUCAGUACCAAGUCUCAGGGGAAACUUUGAGAUGGCCUUGCAAAGGGUAUGGUAAUAAGCUGACGGACAUGGUCCUAACCACGCAGCCAAGUCCUAAGUCAACAGAUCUUCUGUUGAUAUGGAUGCAGUUCACAGACUAAAUGUCGGUCGGGGAAGAUGUAUUCUUCUCAUAAGAUAUAGUCGGACCUCUCCUUAAUGGGAGCUAGCGGAUGAAGUGAUGCAACACUGGAGCCGCUGGGAACUAAUUUGUAUGCGAAAGUAUAUUGAUUAGUUUUGGAGUACUCGUGGUCG
In short: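 A randomised library covering all eight P1ex-region intron nucleotides was built with the intron in the knt kanamycin-resistance gene on pET-22b(+) and held in E. coli BL21(DE3). Cells were grown overnight at 37°C or 30°C on LB agar, with or without 25 μg/mL kanamycin, plus 100 μg/mL carbenicillin, 50 μM IPTG and 0.2% rhamnose, and pooled colonies were amplicon-sequenced on an Illumina HiSeq 2500. DiMSum fitness is the error-weighted combination of wild-type-normalised replicate fold changes, kanamycin versus none.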

| Sequence | self-splicing fitness (ln) (30 °C) | self-splicing fitness (ln) (37 °C) |
| --- | --- | --- |
| AGGAAGCAAUAUUACGGAAC | -3.47 ± 0.26 | -2.96 ± 0.31 |
| AGGAAGCAAUAUUACGGAUC | -1.75 ± 0.16 | -1.02 ± 0.22 |
| AGGAAGCAAUAUUACGGAUG | -3.64 ± 0.2 | -2.37 ± 0.22 |
| AGGAAGCAAUAUUACGGCUU | -3.74 ± 0.34 | -1.32 ± 0.17 |
| AGGAAGCAAUAUUACGGUUG | -3.3 ± 0.17 | -2.23 ± 0.16 |
| AGGAAGCAAUAUUACGUAAA | -2.59 ± 0.18 | -1.88 ± 0.18 |
| AGGAAGCAAUAUUACGUCCU | -3.89 ± 0.16 | -2.04 ± 0.15 |
| AGGAAGCAAUAUUACGUCGA | -1.4 ± 0.16 | -0.922 ± 0.16 |
| AGGAAGCAAUAUUACGUCGU | -2.6 ± 0.14 | -0.803 ± 0.12 |
| AGGAAGCAAUAUUACGUCUG | -0.767 ± 0.058 | -0.387 ± 0.073 |
| AGGAAGCAAUAUUACGUGAU | -3.24 ± 0.13 | -2.57 ± 0.18 |
| AGGAAGCAAUAUUACGUGUG | -2.29 ± 0.077 | -1.85 ± 0.095 |
| AGGAAGCAAUAUUACGUUGG | -3.22 ± 0.3 | -2.33 ± 0.17 |
| AGGAAGCAAUAUUACGUUUA | -2.27 ± 0.12 | -1.8 ± 0.14 |
| AGGCAGCAAUAUUACGAAGC | -4.02 ± 0.42 | -2.73 ± 0.33 |
| AGGCAGCAAUAUUACGACAA | -1.26 ± 0.14 | -0.976 ± 0.13 |
| AGGCAGCAAUAUUACGACGA | -0.555 ± 0.12 | -0.00249 ± 0.14 |
| AGGCAGCAAUAUUACGAGAC | -1.96 ± 0.13 | -2.65 ± 0.22 |
| AGGCAGCAAUAUUACGAGUU | -1.69 ± 0.11 | -0.885 ± 0.1 |
| AGGCAGCAAUAUUACGAUAU | -1.27 ± 0.069 | -0.399 ± 0.091 |
| AGGCAGCAAUAUUACGAUCA | -0.829 ± 0.13 | -0.234 ± 0.15 |
| AGGCAGCAAUAUUACGAUUU | -0.23 ± 0.085 | -0.332 ± 0.1 |
| AGGCAGCAAUAUUACGCAUA | -0.866 ± 0.081 | -1.07 ± 0.093 |
| AGGCAGCAAUAUUACGCAUU | -2.24 ± 0.13 | -0.577 ± 0.1 |
| AGGCAGCAAUAUUACGCCGA | -1.28 ± 0.35 | -1.97 ± 0.22 |

| Sequence | self-splicing fitness (ln) (30 °C) | self-splicing fitness (ln) (37 °C) |
| --- | --- | --- |
| AGGCAGCAAUAUUACGCCGC | -2.8 ± 0.18 | -2.66 ± 0.29 |
| AGGCAGCAAUAUUACGCCUG | -1.78 ± 0.14 | -0.748 ± 0.14 |
| AGGCAGCAAUAUUACGCGGU | -3.61 ± 0.19 | -2.98 ± 0.17 |
| AGGCAGCAAUAUUACGCUGG | -3.73 ± 0.22 | -1.2 ± 0.17 |
| AGGCAGCAAUAUUACGGACU | -0.344 ± 0.079 | 0.146 ± 0.093 |
| AGGCAGCAAUAUUACGGCGG | -1.62 ± 0.094 | -1.11 ± 0.13 |
| AGGCAGCAAUAUUACGGCGU | -0.172 ± 0.063 | -0.0953 ± 0.079 |
| AGGCAGCAAUAUUACGGGUA | -2.35 ± 0.15 | -1.05 ± 0.11 |
| AGGCAGCAAUAUUACGGUAG | -3.33 ± 0.25 | -2.66 ± 0.29 |
| AGGCAGCAAUAUUACGGUCG | -0.147 ± 0.079 | -0.266 ± 0.1 |
| AGGCAGCAAUAUUACGUAAC | -2.03 ± 0.12 | -0.934 ± 0.14 |
| AGGCAGCAAUAUUACGUAGU | -3.18 ± 0.12 | -1.75 ± 0.11 |
| AGGCAGCAAUAUUACGUGUU | -1.85 ± 0.063 | -1.38 ± 0.088 |
| AGGCAGCAAUAUUACGUUCC | -0.801 ± 0.12 | -0.27 ± 0.16 |
| AGGCAGCAAUAUUACGUUUC | -2.17 ± 0.095 | -1.75 ± 0.15 |
| AGGGAGCAAUAUUACGACUC | -1.2 ± 0.48 | -1.92 ± 0.48 |
| AGGGAGCAAUAUUACGAUGU | -1.22 ± 0.098 | -2.13 ± 0.19 |
| AGGGAGCAAUAUUACGCCAC | -2.47 ± 0.49 | – |
| AGGGAGCAAUAUUACGCGAU | -2.89 ± 0.29 | -1.84 ± 0.47 |
| AGGGAGCAAUAUUACGCGGG | -1.93 ± 0.2 | – |
| AGGGAGCAAUAUUACGCGUG | -2.4 ± 0.15 | -2.35 ± 0.23 |
| AGGGAGCAAUAUUACGCUUG | -1.95 ± 0.27 | – |
| AGGGAGCAAUAUUACGCUUU | -2.49 ± 0.45 | -2.48 ± 0.5 |
| AGGGAGCAAUAUUACGGAAG | -3.61 ± 0.4 | -1.02 ± 0.33 |
| AGGGAGCAAUAUUACGGAUA | -3.15 ± 0.31 | – |

| Sequence | self-splicing fitness (ln) (30 °C) | self-splicing fitness (ln) (37 °C) |
| --- | --- | --- |
| AGGGAGCAAUAUUACGGCCG | -1.81 ± 0.16 | -1.96 ± 0.16 |
| AGGGAGCAAUAUUACGGGGU | -3.27 ± 0.36 | -3.01 ± 0.31 |
| AGGGAGCAAUAUUACGGUGA | -1.8 ± 0.24 | -1.66 ± 0.26 |
| AGGGAGCAAUAUUACGGUGG | -3.72 ± 0.27 | -3.79 ± 0.36 |
| AGGGAGCAAUAUUACGGUUG | -2.87 ± 0.19 | -2.76 ± 0.36 |
| AGGGAGCAAUAUUACGUAAU | – | -2.05 ± 0.26 |
| AGGGAGCAAUAUUACGUGUA | -3.24 ± 0.35 | -3.06 ± 0.31 |
| AGGGAGCAAUAUUACGUUGC | – | -1.37 ± 0.31 |
| AGGUAGCAAUAUUACGACUG | -0.0476 ± 0.015 | -0.0252 ± 0.034 |
| AGGUAGCAAUAUUACGAGAA | -2.95 ± 0.05 | -2.09 ± 0.047 |
| AGGUAGCAAUAUUACGAUCU | -0.913 ± 0.016 | -0.426 ± 0.034 |
| AGGUAGCAAUAUUACGCAGA | -2.681 ± 0.023 | -1.59 ± 0.034 |
| AGGUAGCAAUAUUACGCAUC | -3.221 ± 0.027 | -1.72 ± 0.038 |
| AGGUAGCAAUAUUACGCCAA | -1.19 ± 0.02 | -0.512 ± 0.035 |
| AGGUAGCAAUAUUACGCCAG | -1.22 ± 0.02 | -0.873 ± 0.037 |
| AGGUAGCAAUAUUACGCCGC | -3.58 ± 0.053 | -2.77 ± 0.067 |
| AGGUAGCAAUAUUACGCCGG | -1.09 ± 0.017 | -0.556 ± 0.034 |
| AGGUAGCAAUAUUACGCGAU | -3.466 ± 0.03 | -2.24 ± 0.039 |
| AGGUAGCAAUAUUACGCGCA | -0.305 ± 0.016 | 0.00281 ± 0.034 |
| AGGUAGCAAUAUUACGCGCU | -1.13 ± 0.017 | -0.72 ± 0.036 |
| AGGUAGCAAUAUUACGCGGC | -4.05 ± 0.044 | -2.93 ± 0.048 |
| AGGUAGCAAUAUUACGGAAA | -2.92 ± 0.033 | -1.96 ± 0.039 |
| AGGUAGCAAUAUUACGGACC | -0.613 ± 0.019 | -0.424 ± 0.037 |
| AGGUAGCAAUAUUACGGAUC | -1.721 ± 0.017 | -0.787 ± 0.034 |
| AGGUAGCAAUAUUACGGCAG | -1.25 ± 0.015 | -0.539 ± 0.033 |

| Sequence | self-splicing fitness (ln) (30 °C) | self-splicing fitness (ln) (37 °C) |
| --- | --- | --- |
| AGGUAGCAAUAUUACGGCGA | -0.281 ± 0.015 | -0.0476 ± 0.033 |
| AGGUAGCAAUAUUACGGGAC | -3.462 ± 0.028 | -2.15 ± 0.039 |
| AGGUAGCAAUAUUACGGUGU | -2.356 ± 0.015 | -1.01 ± 0.033 |
| AGGUAGCAAUAUUACGGUUG | -3.675 ± 0.026 | -2.4 ± 0.039 |
| AGGUAGCAAUAUUACGUACC | -1.99 ± 0.028 | -1.14 ± 0.042 |
| AGGUAGCAAUAUUACGUAUC | -3.25 ± 0.025 | -2.07 ± 0.038 |
| AGGUAGCAAUAUUACGUCGU | -1.761 ± 0.015 | -0.841 ± 0.034 |
| AGGUAGCAAUAUUACGUCUC | -3.938 ± 0.036 | -2.38 ± 0.047 |
| AGGUAGCAAUAUUACGUCUU | -0.915 ± 0.014 | -0.371 ± 0.033 |
| AGGUAGCAAUAUUACGUGCA | -0.829 ± 0.014 | -0.279 ± 0.033 |
| AGUAAGCAAUAUUACGAAAU | -3.49 ± 0.21 | -2.18 ± 0.17 |
| AGUAAGCAAUAUUACGACCA | -0.203 ± 0.12 | 0.184 ± 0.21 |
| AGUAAGCAAUAUUACGACUA | -0.283 ± 0.13 | -0.43 ± 0.13 |
| AGUAAGCAAUAUUACGACUU | -0.394 ± 0.068 | -0.58 ± 0.097 |
| AGUAAGCAAUAUUACGAUCA | 0.197 ± 0.16 | -0.44 ± 0.15 |
| AGUAAGCAAUAUUACGCAAC | – | -2.61 ± 0.38 |
| AGUAAGCAAUAUUACGCAAG | -2.99 ± 0.16 | -1.88 ± 0.19 |
| AGUAAGCAAUAUUACGCACG | -1.43 ± 0.1 | -0.219 ± 0.12 |
| AGUAAGCAAUAUUACGCCGC | -1.03 ± 0.25 | -2.95 ± 0.48 |
| AGUAAGCAAUAUUACGCCGU | -0.289 ± 0.17 | -2.06 ± 0.31 |
| AGUAAGCAAUAUUACGCCUG | -2.19 ± 0.12 | -1.15 ± 0.12 |
| AGUAAGCAAUAUUACGCGGG | -2.82 ± 0.29 | -2.13 ± 0.29 |
